Values quoted from earlier work as cited in article PMC12112028.
pKd, pKi: −log10 of the molar value. Read-outs that look alike come from different tables or passages of the source.

Legend:
[1] = molecular target: KISS1R (Rattus norvegicus) (UniProt Q924U1)
[2] = molecular target: KISS1R (Rattus norvegicus) (UniProt Q924U1); remark: listed apart in the source
[3] = molecular target: KISS1R (Homo sapiens) (UniProt Q969F8)
[4] = molecular target: KISS1R (Homo sapiens) (UniProt Q969F8); remark: listed apart in the source
[5] = molecular target: KISS1R (Homo sapiens) (UniProt Q969F8); remark: listed apart in the source
[6] = molecular target: KISS1R (Rattus norvegicus) (UniProt Q924U1); test: competitive binding assay
[7] = molecular target: KISS1R (Homo sapiens) (UniProt Q969F8); test: competitive binding assay

UniProt Q924U1, sequence (Q924U1 whole entry): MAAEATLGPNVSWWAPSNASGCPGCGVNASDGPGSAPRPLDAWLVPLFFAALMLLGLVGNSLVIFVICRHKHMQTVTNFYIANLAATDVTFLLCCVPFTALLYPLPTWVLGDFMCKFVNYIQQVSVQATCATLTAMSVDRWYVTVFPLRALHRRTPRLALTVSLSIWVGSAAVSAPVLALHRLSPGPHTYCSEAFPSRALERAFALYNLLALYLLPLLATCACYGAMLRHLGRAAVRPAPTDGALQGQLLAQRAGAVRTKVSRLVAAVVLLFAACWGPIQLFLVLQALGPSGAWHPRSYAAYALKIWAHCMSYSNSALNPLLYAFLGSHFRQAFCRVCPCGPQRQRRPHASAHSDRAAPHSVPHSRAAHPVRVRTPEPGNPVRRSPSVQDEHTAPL
UniProt Q969F8, sequence (Q969F8 whole entry): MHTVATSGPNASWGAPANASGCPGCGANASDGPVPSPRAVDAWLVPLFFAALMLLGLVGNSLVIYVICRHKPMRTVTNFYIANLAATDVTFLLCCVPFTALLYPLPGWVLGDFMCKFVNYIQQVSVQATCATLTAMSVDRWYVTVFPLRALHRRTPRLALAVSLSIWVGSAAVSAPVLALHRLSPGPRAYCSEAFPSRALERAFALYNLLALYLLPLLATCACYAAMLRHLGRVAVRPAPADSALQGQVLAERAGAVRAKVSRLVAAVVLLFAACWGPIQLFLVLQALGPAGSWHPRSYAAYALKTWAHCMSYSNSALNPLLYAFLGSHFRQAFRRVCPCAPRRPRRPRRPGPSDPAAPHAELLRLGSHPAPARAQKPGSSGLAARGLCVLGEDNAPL

Substance	pKi [1]	pKd [2]	pKi [3]	pKd [4]	pKi [5]	pKi [6]	pKi [7]
KP-10 (from UniProt Q15726)	8.80	9.00	8.63	8.72			
KP-13 (from UniProt Q15726)					8.37	8.68	
KP-14 (from UniProt Q15726)						8.69	8.78
KP-54 (from UniProt Q15726)						8.74	8.84
